2 molecules from PMC10899771 can be followed below.

Broadly, the stoichiometry N is a count of units in the complex or per binding partner.

For data set [1], the target named is BabSPARTA complex (BabAgo:BabTIR-APAZ heterodimer) (Bacillales bacterium). Kind of data set: cryo-EM structure.
The target in data set [2] is T1, BabAgo (short pAgo subunit of BabSPARTA);BabTIR-APAZ (subunit of BabSPARTA) (Bacillales bacterium;Bacillales …, UniProt PDB:8QLP_2;PDB:8QLP_1 1-507;1-452, |).
T1 sequence 1: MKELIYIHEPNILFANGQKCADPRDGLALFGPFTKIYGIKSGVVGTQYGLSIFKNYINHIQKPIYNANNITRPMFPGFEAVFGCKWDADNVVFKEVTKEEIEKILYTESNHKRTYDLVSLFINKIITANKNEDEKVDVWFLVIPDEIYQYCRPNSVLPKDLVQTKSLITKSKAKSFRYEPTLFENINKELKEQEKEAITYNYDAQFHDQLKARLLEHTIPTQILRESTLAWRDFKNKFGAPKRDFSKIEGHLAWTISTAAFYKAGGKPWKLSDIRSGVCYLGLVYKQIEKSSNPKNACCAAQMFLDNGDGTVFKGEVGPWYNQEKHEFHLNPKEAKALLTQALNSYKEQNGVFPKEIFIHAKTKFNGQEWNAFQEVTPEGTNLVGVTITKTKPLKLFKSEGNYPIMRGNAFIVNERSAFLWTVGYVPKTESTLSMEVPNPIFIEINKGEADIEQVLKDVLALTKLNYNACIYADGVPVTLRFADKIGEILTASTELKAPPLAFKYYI
T1 sequence 2: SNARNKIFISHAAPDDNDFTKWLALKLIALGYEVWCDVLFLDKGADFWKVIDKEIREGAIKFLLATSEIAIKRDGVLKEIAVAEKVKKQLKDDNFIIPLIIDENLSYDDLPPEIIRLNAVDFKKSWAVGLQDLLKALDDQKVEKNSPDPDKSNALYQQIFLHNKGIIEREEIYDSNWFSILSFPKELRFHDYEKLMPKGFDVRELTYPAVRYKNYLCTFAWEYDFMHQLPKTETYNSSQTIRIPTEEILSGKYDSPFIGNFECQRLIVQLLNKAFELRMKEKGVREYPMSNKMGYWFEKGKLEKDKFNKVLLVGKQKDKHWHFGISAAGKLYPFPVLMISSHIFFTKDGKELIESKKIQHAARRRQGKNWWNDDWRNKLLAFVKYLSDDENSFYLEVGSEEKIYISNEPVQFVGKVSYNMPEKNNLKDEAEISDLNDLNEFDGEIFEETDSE
Kind of data set: cryo-EM structure.

In data set [1], “BabSPARTA complex (BabAgo:BabTIR-APAZ heterodimer)” returned a stoichiometry N of 4.

B1: guide RNA oBK084 / target DNA oBK382 (DNA:RNA)
RNA: UGACGGCUCUAAUCUAUUAGU
DNA: CAACTAATAGATTAGAGCCGTCAAT
modifications: 5'-phosphate on guide RNA
As to B1, the binding result in data set [2] is on record as “binds”.
